The results in this text go back to patent US20150072922A1, “RNASE 7 ANTIMICROBIAL PEPTIDES” (THE RESEARCH INSTITUTE AT NATIONWIDE CHILDREN'S HOSPITAL, priority 2012, published 2015).

For experiment [1], the system named is Proteus mirabilis (ATCC 7002). Briefly: Antimicrobial kill (microdilution) assay, MIC/MBC by CFU count. In kind it is cell-based. To be noted: for antimicrobial activity against P. mirabilis (in words): MIC/MBC based, mostly compared to full-length RNase 7; for P. mirabilis MIC: lowest concentration that inhibits the growth of 90% of the inoculation; for P. mirabilis MIC / P. mirabilis MBC: 3 hours, 0.1×PBS; for P. mirabilis MBC: minimum bactericidal concentration. The method, then: Uropathogenic Escherichia coli (UTI89) was grown in Luria broth (LB) medium and plated on LB-agar. Uropathogenic Staphylococcus saprophyticus (ATCC 15305) was grown in LB and plated on Trypticase Soy Agar with 5% sheep blood (Fisher Scientific, Pittsburgh, Pa., USA). Uropathogenic Proteus mirabilis (ATCC 7002) was grown in LB and plated on MacConkey II Agar (Fisher Scientific, Pittsburgh, Pa., USA). These organisms were chosen as the primary organisms that account for a majority of Gram-negative and Gram-positive urinary tract infections (UTI). Anti-RNase 7 antibody was generated in rabbit with recombinant human RNase 7 (Biomatik, Wilmington, Del., USA)
(§1) Antimicrobial activities of the recombinant peptides were estimated with a microdilution assay. Briefly, the test bacteria (10^4 CFUs) were incubated with various concentrations of RNase 7 and each fragment in 50 ul 0.1×PBS buffer for 3 hours at 37° C. After incubation on Agar plates overnight at 37° C., the number of colony-forming units (CFUs) at each peptide concentration was determined. Using untreated bacterial aliquots as baseline, the minimum inhibition concentration (MIC) was defined as the lowest concentration that inhibits the growth of 90% of the inoculation, and the minimum bactericidal concentration (MBC) was defined as the lowest concentration at which less than 99.99% of the initial inoculum is viable.
On the technique in general: Dilution methods test growth across graded concentrations, often in twofold steps.

A further experiment deals with Escherichia coli (UTI89). The description is as above. It is filed as cell-based. To be noted: for E. coli MIC: lowest concentration that inhibits the growth of 90% of the inoculation; for E. coli MIC / E. coli MBC: 3 hours, 0.1×PBS; for E. coli MBC: minimum bactericidal concentration; for antimicrobial activity against E. coli (in words): MIC/MBC based, mostly compared to full-length RNase 7. As to the method:
(§2) The antimicrobial activity of RNase 7 and its fragments was estimated using a microdilution assay. Briefly, test bacteria (10^5) were incubated with several concentrations of RNase 7 and each fragment in 50 μl 0.1×PBS buffer for 3 hours in a 37° C. incubator. Each reaction was plated on the appropriate medium and grew overnight at 37° C. The antimicrobial activity was determined by the number of colony-forming units (CFUs) the following day. The minimum inhibition concentration (MIC) is defined as the lowest concentration that inhibits the growth of 90% of the inoculation and the minimum bactericidal concentration (MB C) is defined as the lowest concentration at which less than 99.99% of the initial inoculum is viable.
as §1

Experiment [2] deals with Staphylococcus saprophyticus (ATCC 15305). Described as above. To be noted: for S. saprophyticus MIC: lowest concentration that inhibits the growth of 90% of the inoculation; for S. saprophyticus MIC / S. saprophyticus MBC: 3 hours, 0.1×PBS; for S. saprophyticus MBC: minimum bactericidal concentration; for antimicrobial activity against S. saprophyticus (in words): MIC/MBC based, mostly compared to full-length RNase 7. In kind it is cell-based. The method, then:
as §2, §1

Another experiment deals with Proteus mirabilis. Briefly: Urinary condition functional assay (OD600 growth curves). In kind it is cell-based. As to the method: (§3) Because the urinary environment can have significant variation in salt concentration, ionic composition, and pH, an antimicrobial/bacteriostatic assay was performed to evaluate if pH, calcium, or ionic strength affects the activity of full-length RNase7 or its fragments. The highest activity fragment F:1-97 and lowest activity fragment F:72-128 for these experiments were chosen. Bacteria were inoculated in 1% peptone water and growth to log phase with OD600=0.5. Bacteria were diluted to 1:10 and 1 μl added to 100 μl of 1% peptone water with various pH, CaCl2 or NaCl concentrations that correspond to a physiologic range present in the urine in a 96-well flat bottom plate (Thermo Scientific, Nunc, Worcester, Mass.). To each well, 2 μM of RNase7 or its fragments were added.
(§4) Bacterial growth was monitored using an Absorbance microplate reader (BioTek Instruments, Winooski, Vt.) at a final volume of 110 μl. The turbidity of the culture was measured and recorded at t=0 and every 20 min thereafter for 10 hours using the absorbance at 600 nm (OD600). The values of OD600 values were plotted against times to generate growth curves.

The next experiment has as its system S. saprophyticus. Described as above. In kind it is cell-based, Staphylococcus saprophyticus. As to the method: as §3, §4
Another experiment has as its system E. coli. The description is as above. To be noted: 2 μM peptide, 50, 150, 500 mM NaCl, OD600 for 10 hours, FIG. 4. It is filed as cell-based, Escherichia coli. The method, then: as §3, §4

Entries after “also recorded” stand apart in the source; their conditions may differ. Marks after values point to notes of the source that are not given here. Primed or numbered codes have the meaning given here. No end group written: not given here. *: point of attachment. His tag″ = six-residue histidine tag (His-tag) at the NH2-terminus, N[C@@H](Cc1c[nH]cn1)C(=O)N[C@@H](Cc1c[nH]cn1)C(=O)N[C@@H](Cc1c[nH]cn1)C(=O)N[C@@H](Cc1c[nH]cn1)C(=O)N[C@@H](Cc1c[nH]cn1)C(=O)N[C@@H](Cc1c[nH]cn1)C(=O)*; His tag = six-residue histidine tag at the N-terminus, N[C@@H](Cc1c[nH]cn1)C(=O)N[C@@H](Cc1c[nH]cn1)C(=O)N[C@@H](Cc1c[nH]cn1)C(=O)N[C@@H](Cc1c[nH]cn1)C(=O)N[C@@H](Cc1c[nH]cn1)C(=O)N[C@@H](Cc1c[nH]cn1)C(=O)*

“F:1-45: recombinant N-terminal RNase 7 fragment, amino acids 1 to 45 (SEQ ID NO: 2), N-terminal His tag ({His tag″}-KPKGMTSSQWFKIQHMQPSPQACNSAMKNINKHTKRCKDLNTFLH; ends and bridges not checked; listed as Homo sapiens)”: in experiment [1], the “antimicrobial activity against P. mirabilis (in words)” value was “no activity at high concentrations”, the “P. mirabilis MIC” value is recorded as >7** uM and the “P. mirabilis MBC” value is >7** uM. Further, in the experiment with Escherichia coli (UTI89), the “E. coli MIC” value was found to be 0.49 µM and the “E. coli MBC” value amounted to 0.98 µM. Besides, in experiment [2], the “S. saprophyticus MIC” value was 0.13 µM and the “S. saprophyticus MBC” value is 0.5 µM.

As for “F:72-128: recombinant C-terminal RNase 7 fragment, amino acids 72 to 128, N-terminal His tag ({His tag}-SHGPVSLTMCKLTSGKYPNCRYKEKRQNKSYVVACKPPQKKDSQQFHLVPVHLDRVL; ends and bridges not checked)”, in experiment [1], the “P. mirabilis MIC” value is recorded as >3.5** uM and the “P. mirabilis MBC” value was >3.5** uM. In the experiment with Proteus mirabilis (2 μM peptide, 50, 150, 500 mM NaCl, OD600 for 10 hours, FIG. 10), the “activity on Proteus mirabilis growth at various NaCl titers” value is given as “minimal activity against P. mirabilis at all NaCl concentrations”. The “activity on Proteus mirabilis growth at various pH levels” value in the experiment with Proteus mirabilis (2 μM peptide, pH 5, 7, 9, OD600 for 10 hours, FIG. 9) is “minimal activity with enhanced growth at pH 7 and 9”. Moreover, in the experiment with S. saprophyticus (2 μM peptide, 50, 150, 500 mM NaCl, OD600 for 10 hours, FIG. 7), the “activity on S. saprophyticus growth at various NaCl titers” value is “minimal activity against S. saprophyticus at all NaCl concentrations”. For the same molecule, the “activity on S. saprophyticus growth at various pH levels” value in the experiment with S. saprophyticus (2 μM peptide, pH 5, 7, 9, OD600 for 10 hours, FIG. 6) was “minimal activity with enhanced growth at pH 7 and 9; also recorded: grew better with the addition of F:72-128 at pH 7 and 9”. In the experiment on E. coli, the “activity on E. coli growth at various NaCl titers” value is reported as “inhibitory effect of 500 mM NaCl against E. coli was diminished with the addition of F:72-128”. Further, in the experiment with Escherichia coli (UTI89), the “antimicrobial activity against E. coli (in words)” value is reported as “least activity”, the “E. coli MIC” value is listed as 3.5** uM and the “E. coli MBC” value is listed as 7* uM. Besides, in experiment [2], the “S. saprophyticus MIC” value was 3.5** uM and the “S. saprophyticus MBC” value is >7** uM.

As for “F:84-128: recombinant C-terminal RNase 7 fragment, amino acids 84 to 128, N-terminal His tag ({His tag}-TSGKYPNCRYKEKRQNKSYVVACKPPQKKDSQQFHLVPVHLDRVL; cysteine pairing not given here)”, in experiment [1], the “antimicrobial activity against P. mirabilis (in words)” value is “poor antimicrobial function against all uropathogens”, the “P. mirabilis MIC” value is reported as >3.5** uM and the “P. mirabilis MBC” value was >3.5** uM. In addition, in the experiment with Escherichia coli (UTI89), the “antimicrobial activity against E. coli (in words)” value is given as “poor antimicrobial function against all uropathogens”, the “E. coli MIC” value is on record as 1.92** uM and the “E. coli MBC” value was >3.5** uM. For the same molecule, in experiment [2], the “antimicrobial activity against S. saprophyticus (in words)” value is listed as “poor antimicrobial function against all uropathogens”, the “S. saprophyticus MIC” value is 1.75 µM and the “S. saprophyticus MBC” value is reported as 3.5* uM.

B1: F:1-83: recombinant N-terminal RNase 7 fragment, amino acids 1 to 83 (SEQ ID NO: 4), N-terminal His tag (protein, listed as Homo sapiens)
chain: KPKGMTSSQWFKIQHMQPSPQACNSAMKNINKHTKRCKDLNTFLHEPFSSVAATCQTPKIACKNGDKNCHQSHGPVSLTMCKL
modifications: N-terminal His tag
B1: in experiment [1], the “P. mirabilis MIC” value was “.44 µM” and the “P. mirabilis MBC” value is “.88 µM”. In addition, in the experiment on Escherichia coli (UTI89), the “E. coli MIC” value is 0.43 µM and the “E. coli MBC” value was determined as 0.87 µM. Besides, in experiment [2], the “S. saprophyticus MIC” value worked out at 0.34 µM and the “S. saprophyticus MBC” value is 0.69 µM.

B2: F:46-128: recombinant C-terminal RNase 7 fragment, amino acids 46 to 128, N-terminal His tag (protein)
chain: EPFSSVAATCQTPKIACKNGDKNCHQSHGPVSLTMCKLTSGKYPNCRYKEKRQNKSYVVACKPPQKKDSQQFHLVPVHLDRVL
modifications: left off: small tags and cut ends
notes: recombinant C-terminal RNase 7 fragment, amino acids 46 to 128, N-terminal His tag
On to B2, for which, in experiment [1], the “P. mirabilis MIC” value is 3.5 µM and the “P. mirabilis MBC” value was >3.5** uM. In the experiment on Escherichia coli (UTI89), the “E. coli MIC” value was 0.34 µM and the “E. coli MBC” value is “.68 µM”. In experiment [2], the “antimicrobial activity against S. saprophyticus (in words)” value is reported as “MICs similar to full-length”, the “S. saprophyticus MIC” value was 0.22 µM and the “S. saprophyticus MBC” value is 1.75* uM.

B3: F:30-128: recombinant C-terminal RNase 7 fragment, amino acids 30 to 128, N-terminal His tag (protein)
chain: INKHTKRCKDLNTFLHEPFSSVAATCQTPKIACKNGDKNCHQSHGPVSLTMCKLTSGKYPNCRYKEKRQNKSYVVACKPPQKKDSQQFHLVPVHLDRVL
modifications: left off: small tags and cut ends
notes: recombinant C-terminal RNase 7 fragment, amino acids 30 to 128, N-terminal His tag
B3: in experiment [1], the “P. mirabilis MIC” value is >3.5** uM and the “P. mirabilis MBC” value is >3.5** uM. Besides, in the experiment on Escherichia coli (UTI89), the “E. coli MIC” value turned out to be 0.52 µM and the “E. coli MBC” value stood at 2.07 µM. In experiment [2], the “S. saprophyticus MIC” value was 0.88* uM and the “S. saprophyticus MBC” value is “.88 µM”.

B4: F:1-107: recombinant N-terminal RNase 7 fragment, amino acids 1 to 107 (SEQ ID NO: 6), N-terminal His tag (protein, listed as Homo sapiens)
chain: KPKGMTSSQWFKIQHMQPSPQACNSAMKNINKHTKRCKDLNTFLHEPFSSVAATCQTPKIACKNGDKNCHQSHGPVSLTMCKLTSGKYPNCRYKEKRQNKSYVVACK
modifications: N-terminal His tag
For the molecule B4, in experiment [1], the “P. mirabilis MIC” value was “.44 µM” and the “P. mirabilis MBC” value was “.44 µM”. Moreover, in the experiment with Escherichia coli (UTI89), the “E. coli MIC” value is 0.57 µM and the “E. coli MBC” value turned out to be 0.57 µM. In experiment [2], the “S. saprophyticus MIC” value is 0.49 µM and the “S. saprophyticus MBC” value is given as >1.96* uM.

B5: F:56-128: recombinant C-terminal RNase 7 fragment, amino acids 56 to 128, N-terminal His tag (protein)
chain: QTPKIACKNGDKNCHQSHGPVSLTMCKLTSGKYPNCRYKEKRQNKSYVVACKPPQKKDSQQFHLVPVHLDRVL
modifications: left off: small tags and cut ends
notes: recombinant C-terminal RNase 7 fragment, amino acids 56 to 128, N-terminal His tag
For B5, in experiment [1], the “P. mirabilis MIC” value was >7** uM and the “P. mirabilis MBC” value is reported as >7** uM. In addition, in the experiment with Escherichia coli (UTI89), the “E. coli MIC” value was 0.83 µM and the “E. coli MBC” value was determined as 1.65 µM. In addition, in experiment [2], the “antimicrobial activity against S. saprophyticus (in words)” value is “MICs similar to full-length”, the “S. saprophyticus MIC” value amounted to 0.22 µM and the “S. saprophyticus MBC” value is 1.75* uM.
